Series [1] concerns the molecule itself. Nature of the series: crystal structure; Bd2734_(691–843), JCSG+ A3, spacegroup P2_1, 1.8 Å.
Series [2] deals with the molecule itself. Kind of series: crystal structure; Bd2133_(662–1,031), native and selenomethionine-labelled, Morpheus B3, spacegroup P6_322, 2.5 Å.
Series [3] concerns the molecule itself. Kind of series: crystal structure; Bd2740_(518–627), MIDAS F1, spacegroup P2_12_12_1, 2.6 Å.
Series [4] deals with the molecule itself. Nature of the series: crystal structure; Bd2133_(910–1,031), Morpheus A4, spacegroup P2_12_12_1, 1 Å.
Series [5] concerns the molecule itself. Nature of the series: crystal structure; Bd1334_(914–1,151), PACT B9, spacegroup R3, 1.4 Å.
Series [6] deals with the molecule itself. Nature of the series: crystal structure; Bd1334_(818–1,151), Morpheus C1, spacegroup C2, 2.6 Å.
Series [7] deals with the molecule itself. Kind of series: crystal structure; Bd2439_(837–1,107), PACT H3 (P2_122_1) and MIDASplus E9 (P4); with ethylene glycol (1.6 Å) or GlcNAc–MurNAc (1.84 Å).
Series [8] concerns the molecule itself. Kind of series: crystal structure; Bd3182_(632–922) crystallised by vapour diffusion at 18 °C in three forms (Morpheus C1, P2_1; Morpheus G12, I2; Proplex E3, another P2_1); the 1.1 Å form is described.

B1: Bd2734_(691–843), tip-only variant of the NS74 MAT fibre protein Bd2734 (domain or fragment, Bdellovibrio bacteriovorus HD100, UniProt Q6MJN8 691-843, looked up)
chain: TSTLMGSLTMLGKAGCQWEHANTSFASFSNVVACNTATVTGLASAPTEGKIPGIRFANLPAGDYELTVLIFSMYPVDAGVYCRYRLWDGTNFSGMAGAYESEIYQMTGLFSYATDQTNLTFYVQAQTLTATKNCRADITVPGQDKMQIYLKKL
notes: Bd2734 of Bdellovibrio bacteriovorus HD100 (843 aa), TNF-like tip, T691-L843; pET26b construct; The count of three copies rests on the discussion's word that trimerization is invariant in the six solved MATs; source: E. coli BL21 RIPL (DE3), purified (Ni-NTA, Superdex 200)
With B1, the binding result in series [1] is given as “binds”.

B2: Bd2133_(662–1,031), tip of the NS74 MAT fibre protein Bd2133 (domain or fragment, Bdellovibrio bacteriovorus HD100, UniProt Q6ML84 662-1031, looked up)
chain: NSSGALGLSTSGSERMRIDTSGNLGLGTAAPTSALHVERTQDADTTVQVRNTHDTGTAAGARFIASNEKSGIWFGISGTSNTNTGLGSPGDAYIYNAAGTATGKNLNVINNQTGNIHFFAGSTATGTPRMTITNTGLVGINTAAPLQKLHVENGNMVITGTAPAYQLKENDTTDQNWQMGINNGNLRFATQNDALNSSSDKVVISQAGNVGIGATAPTAKLEVAGTIHSTSGGIKFPDGSVQTTAASGAATWTSLGLTSLGAVSMTTTTEQSFTLPVAAQTASQILVYLRCHSGNASTTGADDIRIYTKEGAATYDHYLLMFPYAGQGAVGYNSDSFWLPKTSDNKIYLAHSMAPGSANSGCNFYITGYK
notes: Bd2133 of Bdellovibrio bacteriovorus HD100, N662 to the C-terminus (K1031); A selenomethionine-labelled form was also crystallised for phasing; source: E. coli BL21 RIPL (DE3), purified (Ni-NTA, TEV, Ni-NTA, Superdex 200)
In the case of B2, in series [2], the “stoichiometry N” value was 3.

B3: Bd2740_(518–627), tip of the NS74 MAT fibre protein Bd2740 (domain or fragment, Bdellovibrio bacteriovorus HD100, UniProt Q6MJN2 518-627, looked up)
chain: APCDSGWTLINKGDPFCAKQQSVTGTNFATSMTQCLNNGGKLCDLQEAVGMCQTGFIPSNTTLWISQLADNSSAHVINCTSGSWSAGFYGFGVTVDGSNPILPYCCKGRR
notes: Bd2740 of Bdellovibrio bacteriovorus HD100 (627 aa), C-type lectin fold tip, residues 518-627 (the results print 517-626); Synthesised gene in pET29a; an Ala-Ser linker follows the hexa-His tag; source: E. coli BL21 RIPL (DE3), purified (Ni-NTA, Superdex 200)
Take B3: the “stoichiometry N” value in series [3] was determined as 3.

B4: Bd2133_(910–1,031), tip-only variant of Bd2133 (domain or fragment, Bdellovibrio bacteriovorus HD100, UniProt Q6ML84 910-1031, looked up)
chain: AATWTSLGLTSLGAVSMTTTTEQSFTLPVAAQTASQILVYLRCHSGNASTTGADDIRIYTKEGAATYDHYLLMFPYAGQGAVGYNSDSFWLPKTSDNKIYLAHSMAPGSANSGCNFYITGYK
notes: Bd2133 of Bdellovibrio bacteriovorus HD100, β-sandwich tip domain, A910 to the C-terminus (1031); Made by deletion from the plasmid of Bd2133_(662–1,031); also called tip-only variant (A910 onwards); source: E. coli BL21 RIPL (DE3), purified (Ni-NTA, TEV, Ni-NTA, Superdex 200)
With B4, the binding result in series [4] was “binds”.

B5: Bd1334_(914–1,151) (domain or fragment, Bdellovibrio bacteriovorus HD100, UniProt Q6MNC5 914-1151, looked up)
chain: SAGTLAAPTAVTSGQSLTSLTAFAYNGTQYQSGGNASINFVATEAHTASAGGAKIIFNTTNNGATGSTEKVVIDQNGNVGVGVGAPTAKMDVNGGIKQPNYGIISAVRNSGGVTASMPWTNAYVLAHQGEMHQWVAGGPILQDSVTGCNAGPDAGVKFDSIATSWGGPYKVIFHTTGSNGAIHLEWSGWQVSLKNSAGTELAIGMGQVFATLHYDPAVSNWRVEHMFGRINNTNFTCW
notes: Bd1334 of Bdellovibrio bacteriovorus HD100, S914 to the C-terminus (W1151); also called Bd1334 from S914 onwards; source: E. coli BL21 RIPL (DE3), purified (Ni-NTA, TEV, Ni-NTA, Superdex 200)
Regarding B5, in series [5], the “stoichiometry N” value is 3.

B6: Bd1334_(818–1,151), tip of the NS74 MAT fibre protein Bd1334 (domain or fragment, Bdellovibrio bacteriovorus HD100, UniProt Q6MNC5 818-1151, looked up)
chain: SSAETDFATAVNGNLRFYTAAAGTDSERMRITGSGLVGIGTPAPAVPLQVATRVPSSAVHPNRAGIQAVGEGTDVGGRISALVSSTIEMATFSGYQSAGTLAAPTAVTSGQSLTSLTAFAYNGTQYQSGGNASINFVATEAHTASAGGAKIIFNTTNNGATGSTEKVVIDQNGNVGVGVGAPTAKMDVNGGIKQPNYGIISAVRNSGGVTASMPWTNAYVLAHQGEMHQWVAGGPILQDSVTGCNAGPDAGVKFDSIATSWGGPYKVIFHTTGSNGAIHLEWSGWQVSLKNSAGTELAIGMGQVFATLHYDPAVSNWRVEHMFGRINNTNFTCW
notes: Bd1334 of Bdellovibrio bacteriovorus HD100, S818 to the C-terminus (W1151); The cloning paragraph prints this construct as Bd1334_(818–1,031); everywhere else it is 818–1,151; source: E. coli BL21 RIPL (DE3), purified (Ni-NTA, TEV, Ni-NTA, Superdex 200)
With B6, in series [6], the “stoichiometry N” value stood at 3.

B7: Bd2439_(837–1,107), tip of the NS74 MAT fibre protein Bd2439 (domain or fragment, Bdellovibrio bacteriovorus HD100, UniProt Q6MKF5 837-1107, looked up)
chain: GGLDIVNNATGDDNRDDLNIRTYGATETSSLIMLRARGTASAPAAVQTGDRLGGVLFRGWNGTAWMGSGQILSVAEENFTTAVKTNLQFHVGGAGEAMRISNTGNVGIGTTTTTEKLNVQGNVAVSGEITSVRSWGIKRGPTSFSANYINVWNSGYHVGSSIDCTTSTTGCRILKAGTYEIRCVQRAGTSGNSVYVGIALNGDRTALESRNDVLWNHSHTAYSGSYTESNFMGTLSANDLITCGAPVNTMAADLVYAVPAYNGTMQIKRVD
notes: Bd2439 of Bdellovibrio bacteriovorus HD100, G837-D1107 (β-helix N850-V968, R969 linker, TNF-like tip S970-D1107); pET26b construct; source: E. coli BL21 RIPL (DE3), purified (Ni-NTA, Superdex 200)
B7: in series [7], the “stoichiometry N” value amounted to 3.

B8: Bd3182_(632–782), mature tip region of the MAT (mosaic adhesive trimer) fibre protein Bd3182 (domain or fragment, Bdellovibrio bacteriovorus HD100, UniProt Q6MIH5 632-782, looked up)
chain: GTNDAFSLSFETNNTPRMTIDDVGRVGVGTTAPTSALHVIGTGEVARFVTSATGGVVIDSTALNYNPSLIYRKTNINRWSMMVNAASETGGNAGSNLSILRYDDTGATLGAAVTIDRASGFFGINTAAPAYNIHVTGTAGLSTGSAWTVAS
notes: Bd3182 of Bdellovibrio bacteriovorus HD100, S74-group MAT fibre protein; expressed as residues 632-922, the S74 chaperone/protease domain cuts itself off at catalytic residue S782; the fibre part, labelled 632-782, was crystallised; the model traces P647 to A781; The methods name the cloned construct once as 668-922 and elsewhere as 632-922; also called Bd3182_(632–922) (construct before …)
Consider B8, for which the “stoichiometry N” value in series [8] turned out to be 3.

As a reminder, the stoichiometry N is the number of molecules, sites or subunits per partner or assembly.

Source of the values: PMC10769870, “Bdellovibrio bacteriovorus uses chimeric fibre proteins to recognize and invade a broad range of bacterial hosts” (Nature Microbiology, 2024).
